Experimental data taken from the DeepSol protein solubility set.

Test: soluble on expression in E. coli; label from the status in PepcDB or PDB records

Sequence | soluble on expression in E. coli
GEIEFIESSKDAGFPVINTPSKTKLEPSVFHQVFEGNKEPAVLRSGDPRLKANFEEAIFSKYIGNVNTHVDEYMLEAVDHYAGQLATLDISTEPMKLEDAVYGTEGLEALDLTTSAGYPYVALGIKKRDILSKKTKDLTKLKECMDKYGLNLPMVTYVKDELRSIEKVAKGKSRLIEASSLNDSVAMRQTFGNLYKTFHLNPGVVTGSAVGCDPDLFWSKIPVMLDGHLIAFDYSGYDASLSPVWFACLKMLLEKLGYTHKETNYIDYLCNSHHLYRDKHYFVRGGMPSGCSGTSIFNSMINNIIIRTLMLKVYKGIDLDQFRMIAYGDDVIASYPWPIDASLLAEAGKGYGLIMTPADKGECFNEVTWTNATFLKRYFRADEQYPFLVHPVMPMKDIHESIRWTKDPKNTQDHVRSLCLLAWHNGEHEYEEFIRKIRSVPVGRCLTLPAFSTLRRKWLDSFHHHHHH | soluble
MHHHHHHMKEVVSSVYKEILVKLGLTEDRIETLEMKGGIIEDEFDGIRYVRFKDSAGKLRRGTVVIDEEYVIPGFPHIKRIINLRSGIRRIFKRGEFYVEEKVDGYNVRVVMYKGKMLGITRGGFICPFTTERIPDFVPQEFFKDNPNLILVGEMAGPESPYLVEGPPYVKEDIQFFLFDVQEIKTGRSLPVEERLKIAEEYGINHVEVFGKYTKDDVDELYQLIERLSKEGREGIIMKSPDMKKIVKYVTPYANINDIKIGARVFYELPPGYFTSRISRLAFYLAEKRIKGEEFERVAKELGSALLQPFVESIFDVEQEEDIHELFKVRVKRIETAYKMVTHFEKLGLKIEIVDIEEIKDGWRITFKRLYPDATNEIRELIGGKAFVD | soluble
MAHHHHHHMGTVSPARRVASPGKGKRSPSRGETPSEGRTRRAGSSPSSRPGMQTASQRAARKKEVRRLRDAELLLDEAPLSMVGERAQDALEAMLRALDIRRNASATPKKMQPVWHHVKALVVTANREGLRRAYAAFPAEEGHYFFGKALSTLEYSASTVNTAADGGEFAECPLLLSHLMEATLNNIAFQQYIAHEPPEAILKTLQRALKVQHHQAFRTLTLYNMAVAFLAARRYEDATEFVARCSQVAEVCLELEVSLTREISSLYKEYHTMVATHAIMCHHLLAGLAAWSGESDMEVYHAQLALCCATKFLCRG | not soluble
MSLGSRNGEKDWENASTTSSVASGTEYTGPKLYKEPSAKSNKHIIQNALAHCCLAGKVNEGQKKKILEEMEKSDANNFLILFRDSGCQFRSLYTYCPETEEINKLTGIGPKSITKKMIEGLYKYNSDRKQFSHIPAKTLSASVDAITIHSHLWQTKRPVTPKKLLPTKEGHHHHHH | soluble
MSLSQLFKSFDASEKTQLICFPFAGGYSASFRPLHAFLQGECEMLAAEPPGHGTNQTSAIEDLEELTDLYKQELNLRPDRPFVLFGHSMGGMITFRLAQKLEREGIFPQAVIISAIQPPHIQRKKVSHLPDDQFLDHIIQLGGMPAELVENKEVMSFFLPSFRSDYRALEQFELYDLAQIQSPVHVFNGLDDKKCIRDAEGWKKWAKDITFHQFDGGHMFLLSQTEEVAERIFAILNQHPIIQPEGGSHHHHHH | soluble
MAHHHHHHMKFAFVFPGQGSQSVGMLNAFADVAVVRETLDEASDALGQDIGKLIADGPADELNLTTNTQPVMLTAAYACYRAWQQAGGAQPSIVAGHSLGEYTALVAAGAIAFRDALPLVRFRAQAMQTAVPVGVGGMAAILGLDDDTVRAVCAEASATGVVEAVNFNAPAQVVIAGTKAGIEKACEIAKEKGAKRALPLPVSAPFHSSLLKPASDKLREYLAGVDVKAPKISVVNNIDVAVVSDPAAIKDALVRQAAGPVRWVECVQHIAREGVTHVIECGPGKVLAGLTKRIDGNLVGASVFDPASLDEALKLAAA | soluble
MGSDKIHHHHHHMNATQTQMRREINEIPDAVERLLTEGAGAVAATAADIRDLQPSYLLSVARGSSDHASTYLKYASELLLGLPMASVGPSVKSIYGVDLHCKGALSISVSQSGKSPDIVQLTSAFRDKGAYTVAITNDAGSPLAETAAAVLPIHAGPELSVAATKTFVTSLVAGLWVLAEVKQDAALLEAILRLPGHLAKAKDCDWSAAIEAIDGQSLYTLGRGPSWAISNEAALKFKETCQIHAESYSAAEVLHGPVSIVGENFPVIAFAAADAAEESVGEMVAALGDKGARVFATTHKAKGAEVLPHVRTDHWITDPIASIVSFYGMVEAVAARRGVNPDAPRHLNKVTETV | not soluble
MAEKIKINNNVFIYPMPVTLLGANVKGKANLMALGWVSRVNANPPMLGVGVNKSHYTPEGIAENGSFSVNFPYSGMVKKTDYCGLVSGEKVDKSGLFEVFYGELKTAPMIKECTLNLECRVVETLEFPTNYFFVGEIIAAYSEEQYLIQGKPDIKKMDPLLLTMPDNSYWTVGDYAGAALKTGKSLMEKRHHHHHH | soluble
GPGSMLKFRLPYTHKKIGFGDSSRKVNSSLIGPDGTVNYLRGDILLPIWTRPTSTEGRLVVPRGAHRVPYKVAQVENCFFFFNARVREQVHFNHILLPDENLDHHYDAAAEVNCLLKYLQFLHPELREASAAVLRREVKHISTSITAHLRVNFQDVVRRREYLLLKQARSGQSEEEGDESDNEAVDADTAPNCGAQLGSSWETFAKEIIQAASKERARVVWRRNVEETGSDVRSGFWVTTIMRQ | not soluble
DQALATALPGKWIHLRILALANAHIVIDEVHTLDHYQTALLENILPILAKLKTKITFLTATMPSWQRTKLLTAYGGEDLQIPPTVFPAAETVLPGQFNRTLIDSDSTTIDFTMEETSYDHLVESHVKWHQTTRLNAPHARIGLICNTVKRAQEIAAALEKTNDRIVLLHSRMTTEHRRRSAELLESLLGPNGNRKTITVVGTQAIEASLDIDLDILRTELCPAPSLVQRAGRVWRRNDPYRSSRITADHKPISVVFIAEAEDWQVLPYLRAETSRTQRWLEKHNQMFLPQMAQEFIDAATVDLDTATSEMDLDALALMGIHLMKADGAKARIQDVLNSDSKVSDFALLTSKNEIDEAQTRLIEEGTHLRIILGDENESIPGGWKHGLSSLLKLKASDRESLRTALLASIPLLVSEKQKQLLYQHN | not soluble
MAAELVQLNPGQQVERWSIEKKLGEGGFGAVYRVFDATGKYAMKVEGANEQIQVLKLEVSVLNKLSKRGNRHFCKIEDKGRFGNFNYVVMTLVGKSLQDLNKAGVGGHMSMGCSIGIGIQSLEALEDLHNIGYLHRDVKPGNYTIGRPELNEIRKVYILDFGMCRKFTGNDGTIRKPRQAAGFRGTVKYAPISCHLQRELCRKDDLETWMYMQVELSHGTIPWQYISDMNQVGQAKQAIRNNLGSLFPPPCPHQFQDIMRMVDAMKYYDAPNYQAIYGMMRQAYGACGSNENAPYDWENGGPAAYLLH | not soluble
MGSDKIHHHHHHMYEKYIVEGLSDREIAYLIGCGKATVVRARQKHGIYREDVKMCDDYTLDNISEDLRTFIDGLLLGDACITEKGNLLITQNKRYDWLEYVKHRFQQFGLNVYFHCYKYKRRTSEVIADLYVLSTSRYELFRQLRERWYPDGIKRIPNDLVINDEGLAQWYLGDGSLTKQKNGYKLELSTHGFTLDENKFLQQKLKLLYGFDFRISKKHQYRYLRLFKSKQVHAFCSIVEPFIPPSYRNKVRCLHDYQWLKSWDVI | not soluble
GPYATEVELREMVDIAQEHGIVEIEERRMIQSVFDLASTTVRQVMVPRPEMIWIESGKTAGQATALCVRSGHSRIPVIGENVDDIIGIVYLKDLVQKTYYATDGGKSVLVDEVMREATFVPDSKSLDALLQEMQEDHKHIAILVDEYGGVAGLISIEDILEEIVGEIADEYDAREVAPIEKIGDRTYRVVSRL | not soluble
MMEMRVGIVGGGLAGLTAAIALAEKGFDVSIIGPRSTDSNSYLAQAGIALPLLEGDSIRIHVLDTIKAGKYINDEEIVWNVISKSSEAHDFLTSHGVTFTGNELEGGHSYPRIFTIKSETGKHIIPILEKHARELDVNFIRGFVEEIGINNGKLAGVFLQGELLKFDAVVIAAGGFSGLYRFTAGVKNNIGLLIGDVALKGVPLRDMEFVQFHPTGFIGKRTYLITEAVRGAGAKLVTGDGERFVNELETRDIVARAIYMKMLEGKGVFLDARGIENFKDRFPYIYSVLRGEGINPEKDLIPITPVAHYTIGGISVDAFYRTRIKGLYAIGESACNGFHGANRLASNSLLECVVSGLEVARTISREKPKREVNDAPYSFNELGDVDSIREVLWNHAGIVRDEWSLREGLRKLKEIEVDERLKLVAKAVIISALKREESRGAHYRKDYPFMRKEFEHSSFFYPNV | soluble
NTMRSFILRARSAPTDSQRLLDEIGGKCHTEILAHCMMNSLFTAQSHREDVVIHLVLESTRDYSRTITVEANEISDVGGFHEAALIALLVKALDASVGMGKEQTRVVQPGLTVRTISFEALLGELAEHHSLYMMDKKGDSIRDIKIGPNPCFILTDHIPMPKKSGNSMKRLGVEKISLGPKMLFASQCVTLIHNEIDHQEA | not soluble
AHHHHHHGSPKIGIIGGSGVYGIFEPKETVKVHTPYGRPSAPVEIGEIEGVEVAFIPRHGKYHEFPPHEVPYRANIWALHELGVERVIAVNAVGSLKEEYKPGDIVIIDQFIDFTKKREYTFYNGPRVAHISMADPFCPELRRIFIETAKELNLPVHEKGTYICIEGPRFSTRAESRMFRQFADVIGMTLVPEVNLARELGMCYVNISTVTDYDVWAEKPVDAQEVLRVMKENEEKVQKLLKRAIPKIPEERKCGCADVLKTMFV | not soluble
KGDFVFKPYLLVQTCANFNWYDDEGLDKAYNQDNVANSGFSIPYAVLGFTGKAFGKVAFNLSINAAASGGALLQQAWFDVQLKKQFAVRVGKFKTPFSHAYLTTLGETLLPQLPVSLTSAIILPYSLNAVTPNIGTGFDLGVEIHGLLADKFGYEVGLFNGTGSSVNTATKTLSDDWHIPSLLYAGRFTYMPKGVMPSTQGNPNRLNEDKIMFGVSASINVESENESTNDTRVGVEFAMLKNKLYLGAEAYYMNVGFTDRQKINETYNYLGGYVQGGYFVAPRLQAALRYDFFNRNGTSDDGFLNMPAVGVNYFFKGCNLKLQAMYQYIARTGHDTQLDRDNDNLGLATHSATVMLQYTF | not soluble
MLALGIEGTAHTLGIGIVSEDKVLANVFDTLTTEKGGIHPKEAAEHHARLMKPLLRKALSEAGVSLDDIDVIAFSQGPGLGPALRVVATAARALAVKYRKPIVGVNHCIAHVEITKMFGVKDPVGLYVSGGNTQVLALEGGRYRVFGETLDIGIGNAIDVFARELGLGFPGGPKVEKLAEKGEKYIELPYAVKGMDLSFSGLLTEAIRKYRSGKYRVEDLAYSFQETAFAALVEVTERAVAHTEKDEVVLVGGVAANNRLREMLRIMTEDRGIKFFVPPYDLCRDNGAMIAYTGLRMYKAGISFRLEETIVKQKFRTDEVEIVWHHHHHH | soluble
MNKLNICIDIDGTITSPYHFLPYLNDIFNKNITEAECITHNWEELYGSGIRDVYAEFNNKYIHSYDEAKIVEGATEVISTLSKGHNLSFVTARHECLTDVTKNWLSRQGFSDIDVYLLGSDYKVEKARELSCDIFIEDNPLNSVQLADDGVKVILLDTNYNKDVKHQNIVRVSNWIDIEKIIKQGI | not soluble
MGSSHHHHHHGGTGENLYFQGGSGNRIDISNFDFLYVIGKGTYGIVYKALDKKENNFVAIKKIINLCDENYGISKCILRELTILQKIKHKNIINLKYVFYGKDIEDKLKGENLENSCLYLAFEYCDIDLFNLIKKHNLNIKEIKYIIFELLLALSYFHSNNYIHRDIKPENIFITSEGEIKLGDLGMSVEKSDHMTPTVVTLWYRAPEILLKSTNYDQKVDIWSLGCLFMELIQGRPLFPGKNDCTQLELIYLLLGDKDKLTTVDKERKDMFPYFEINMLKDAIDDEHTLDLISKMLIYDPNYRISSKEALKHPCFQDIEQVKFSYNF | not soluble
